In publication PMC5314347:

B1: ABHD5-luciferase(N) (alpha-beta hydrolase domain-containing 5, wild type) [mouse] / PLIN5-luciferase(C) (perilipin 5) [mouse] (parent)
chain 1: MKAMAAEEEVDSADAGGGSGWLTGWLPTWCPTSTSHLKEAEEKMLKCVPCTYKKEPVRISNGNRIWTLMFSHNISSKTPLVLLHGFGGGLGLWALNFEDLSTDRPVYAFDLLGFGRSSRPRFDSDAEEVENQFVESIEEWRCALRLDKMILLGHNLGGFLAAAYSLKYPSRVSHLILVEPWGFPERPDLADQERPIPVWIRALGAALTPFNPLAGLRIAGPFGLSLVQRLRPDFKRKYSSMFEDDTVTEYIYHCNVQTPSGETAFKNMTIPYGWAKRPMLQRIGGLHPDIPVSVIFGARSCIDGNSGTSIQSLRPKSYVKTIAILGAGHYVYADQPEEFNQKVKEICHTVD
chain 2: MDQRGEDTTLAPHSRMSGDQTAQDPGSSLGELDQQNVVNRVVALPLVKATCTAVSSAYNSAKDRHPLLGSACRLAEHCVCSVTTCALDHAQPLLEHLQPQLATVNDLACRGLDKLEEKLPFLQQPSDMVVTSAKDTVAKSVTGMVDLAQRGRRWSGELRRSMSQAMDMVLGKSEKLVDRFLPMTEAELAVLAAEAEGPEVGTVEEQRQQQGYFVRLGSLSARLRHLAYEHSLGKLRQSKHRTQEMLAQLQETLELIQHMQRGASPSPTFHPPKTQELWGSWSPCLENGRSHSEVELETLALSRSLTLELQNAVDALAGCVRGLPPSAQAKVAEVQRSVDALQATFADAHCLGDVAPTALAEGRGSVARAHACVDEFLDLVLRAMPLPWLVGPFAPILVEQSEPLINLATCVDEVVGDPDPRWAHMDWPAQKRAWEAESADPGGQEAEPPRGQGKHTMMPELDF
B2: ABHD5-luciferase(N) (alpha-beta hydrolase domain-containing 5, wild type) [mouse] / PLIN1-luciferase(C) (perilipin 1) [not stated] (parent)
chain 1: B1 chain 1
chain 2: MSMNKGPTLLDGDLPEQENVLQRVLQLPVVSGTCECFQKTYNSTKEAHPLVASVCNAYEKGVQGASNLAAWSMEPVVRRLSTQFTAANELACRGLDHLEEKIPALQYPPEKIASELKGTISTRLRSARNSISVPIASTSDKVLGATLAGCELALGMAKETAEYAANTRVGRLASGGADLALGSIEKVVEFLLPPDKESAPSSGRQRTQKAPKAKPSLVRRVSTLANTLSRHTMQTTAWALKQGHSLAMWIPGVAPLSSLAQWGASAAMQVVSRRQSEVRVPWLHNLAASQDESHDDQTDTEGEETDDEEEEEESEAEENVLREVTALPNPRGLLGGVVHTVQNTLRNTISAVTWAPAAVLGTVGRILHLTPAQAVSSTKGRAMSLSDALKGVTDNVVDTVVHYVPLPRLSLMEPESEFRDIDNPSAEAERKGSGARPASPESTPRPGQPRGSLRSVRGLSAPSCPGLDDKTEASARPGFLAMPREKPARRVSDSFFRPSVMEPILGRAQYSQLRKKS

Variants of: B1
Assay: luciferase protein complementation analysis, SR4995 dose-response
Settings: with PLIN5-luciferase(C) (perilipin 5) [mouse]; SR4995 titrated from 1e-8.5 to 1e-4 M; mean ± SD; read off a plot

Row | Variant | IC50 (log10 M (log[SR4995]))
1 | chain 1 MKAMAAEEEVDSADAGGGSGWLTGWLPTWCPTSTSHLKEAEEKMLKCVPCTYKKEPVRISNGNRIWTLMFSHNISSKTPLVLLHGFGGGLGLWALNFEDLSTDRPVYAFDLLGFGRSSRPRFDSDAEEVENQFVESIEEWRCALRLDKMILLGHNLGGFLAAAYSLKYPSRVSHLILVEPWGFPERPDLADQERPIPVWIRALGAALTPFNPLAGLRIAGPFGLSLVQRLRPDFKRKYSSMFEDDTVTEYIYHCNVQTPSGETAFKNMTIPYGWAKRPMLQRIGGLHPDIPVSVIFGARSCIDGNSGTSIQSLRPKSYVKTIAILGASHYVYADQPEEFNQKVKEICHTVD [chain 1 G328S] | -7.2
2 | chain 1 MKAMAAEEEVDSADAGGGSGWLTGWLPTWCPTSTSHLKEAEEKMLKCVPCTYKKEPVRISNGNRIWTLMFSHNISSKTPLVLLHGFGGGLGLWALNFEDLSTDRPVYAFDLLGFGRSSRPRFDSDAEEVENQFVESIEEWRCALRLDKMILLGHNLGGFLAAAYSLKYPSRVSHLILVEPWGFPERPDLADQERPIPVWIRALGAALTPFNPLAGLRIAGPFGLSLVQRLRPDFKRKYSSMFEDDTVTEYIYHCNVQTPSGETAFKNMTIPYGWAKRPMLQRIGGLHPDIPVSVIFGANSCIDGNSGTSIQSLRPKSYVKTIAILGAGHYVYADQPEEFNQKVKEICHTVD [chain 1 R299N] | -6.5

Variants of: B2
Assay: as above
Settings: with PLIN1-luciferase(C) (perilipin 1); SR4995 titrated from 1e-8.5 to 1e-4 M; mean ± SD; read off a plot

Row | Variant | IC50 (log10 M (log[SR4995]))
3 | chain 1 MKAMAAEEEVDSADAGGGSGWLTGWLPTWCPTSTSHLKEAEEKMLKCVPCTYKKEPVRISNGNRIWTLMFSHNISSKTPLVLLHGFGGGLGLWALNFEDLSTDRPVYAFDLLGFGRSSRPRFDSDAEEVENQFVESIEEWRCALRLDKMILLGHNLGGFLAAAYSLKYPSRVSHLILVEPWGFPERPDLADQERPIPVWIRALGAALTPFNPLAGLRIAGPFGLSLVQRLRPDFKRKYSSMFEDDTVTEYIYHCNVQTPSGETAFKNMTIPYGWAKRPMLQRIGGLHPDIPVSVIFGARSCIDGNSGTSIQSLRPKSYVKTIAILGASHYVYADQPEEFNQKVKEICHTVD [chain 1 G328S] | -6.8
4 | chain 1 MKAMAAEEEVDSADAGGGSGWLTGWLPTWCPTSTSHLKEAEEKMLKCVPCTYKKEPVRISNGNRIWTLMFSHNISSKTPLVLLHGFGGGLGLWALNFEDLSTDRPVYAFDLLGFGRSSRPRFDSDAEEVENQFVESIEEWRCALRLDKMILLGHNLGGFLAAAYSLKYPSRVSHLILVEPWGFPERPDLADQERPIPVWIRALGAALTPFNPLAGLRIAGPFGLSLVQRLRPDFKRKYSSMFEDDTVTEYIYHCNVQTPSGETAFKNMTIPYGWAKRPMLQRIGGLHPDIPVSVIFGANSCIDGNSGTSIQSLRPKSYVKTIAILGAGHYVYADQPEEFNQKVKEICHTVD [chain 1 R299N] | -6.7
